From PMC5751283, “A Split-Luciferase Reporter Recognizing GFP and mCherry Tags to Facilitate Studies of Protein–Protein Interactions” (International Journal of Molecular Sciences, 2017)

Target: the molecule itself
Assay: split reporter (BiFC, NanoBiT); GFP- and/or mCherry-tagged targets expressed in Leishmania tarentolae extract (pairs co-expressed, self-associating proteins alone), serially diluted three-fold, mixed 1:1:1 with two split-nanoLuc fusions of anti-GFP or anti-mCherry nanobodies (SLN pairs GL/GS, LC/GS, CL/CS or LC/CFRS, also made in LTE); 10 min at 23 °C; buffer A (25 mM HEPES pH 7.4, 50 mM NaCl); background: …

B1: mCherry–SOX9 (natural protein, UniProt P48436 1-509, looked up)
chain: MNLLDPFMKMTDEQEKGLSGAPSPTMSEDSAGSPCPSGSGSDTENTRPQENTFPKGEPDLKKESEEDKFPVCIREAVSQVLKGYDWTLVPMPVRVNGSSKNKPHVKRPMNAFMVWAQAARRKLADQYPHLHNAELSKTLGKLWRLLNESEKRPFVEEAERLRVQHKKDHPDYKYQPRRRKSVKNGQAEAEEATEQTHISPNAIFKALQADSPHSSSGMSEVHSPGEHSGQSQGPPTPPTTPKTDVQPGKADLKREGRPLPEGGRQPPIDFRDVDIGELSSDVISNIETFDVNEFDQYLPPNGHPGVPATHGQVTYTGSYGISSTAATPASAGHVWMSKQQAPPPPPQQPPQAPPAPQAPPQPQAAPPQQPAAPPQQPQAHTLTTLSSEPGQSQRTHIKTEQLSPSHYSEQQQHSPQQIAYSPFNLPHYSPSYPPITRSQYDYTDHQNSSSYYSHAAGQGTGLYSTFTYMNPAQRPMYTPIADTSGVPSIPQTHSPQHWEQPVYTQLTRP
notes: SOX9; also called SOX9–mCherry; mCherry homodimer; source: Leishmania tarentolae cell-free extract (LTE), not purified
signal-to-background ratio: 5
